Assay results from publication PMC4859490, “Why p-OMe- and p-Cl-β-Methylphenethylamines Display Distinct Activities upon MAO-B Binding” (PLoS ONE, 2016).

Substrate: COc1ccc(C(C)CN)cc1
Assay: purified protein
Type: biochemical, Homo sapiens
Conditions: FAD substrate binding site (modelled: aromatic cage facing FAD, Tyr398/Tyr435; methoxyl oxygen near Cys172)

B1: MAO-B (Homo sapiens) (protein)
chain: SNKCDVVVVGGGISGMAAAKLLHDSGLNVVVLEARDRVGGRTYTLRNQKVKYVDLGGSYVGPTQNRILRLAKELGLETYKVNEVERLIHHVKGKSYPFRGPFPPVWNPITYLDHNNFWRTMDDMGREIPSDAPWKAPLAEEWDNMTMKELLDKLCWTESAKQLATLFVNLCVTAETHEVSALWFLWYVKQCGGTTRIISTTNGGQERKFVGGSGQVSERIMDLLGDRVKLERPVIYIDQTRENVLVETLNHEMYEAKYVISAIPPTLGMKIHFNPPLPMMRNQMITRVPLGSVIKCIVYYKEPFWRKKDYCGTMIIDGEEAPVAYTLDDTKPEGNYAAIMGFILAHKARKLARLTKEERLKKLCELYAKVLGSLEALEPVHYEEKNWCEEQYSGGCYTTYFPPGILTQYGRVLRQPVDRIYFAGTETATHWSGYMEGAVEAGERAAREILHAMGKIPEDEIWQSEPESVDVPAQPITTTFLERHLPSVPGLLRLIGLTTIFSATALGFLAHKRGLLVRV
  Km: 87 ± 8 µM
  kcat: 0.233 ± 0.0167 s⁻¹
